Series [1] concerns IC9LC11 non-small cell lung cancer patient-derived xenograft. Briefly: Antitumor activity in IC9LC11 non-small cell lung cancer patient-derived xenograft model. Type of series: in vivo, immunodeficient female mice. The note with it: 5 mg/kg; control group end day, D28.
The target in series [2] is T1, human Endo180-moFc domains I-IV (aa 31-513) (human, UniProt Q9UBG0 31-513).
T1 construct: also called huEndo180 (DI-IV); huEndo180-moFc DI-IV; not shown: murine Fc domain
T1 sequence: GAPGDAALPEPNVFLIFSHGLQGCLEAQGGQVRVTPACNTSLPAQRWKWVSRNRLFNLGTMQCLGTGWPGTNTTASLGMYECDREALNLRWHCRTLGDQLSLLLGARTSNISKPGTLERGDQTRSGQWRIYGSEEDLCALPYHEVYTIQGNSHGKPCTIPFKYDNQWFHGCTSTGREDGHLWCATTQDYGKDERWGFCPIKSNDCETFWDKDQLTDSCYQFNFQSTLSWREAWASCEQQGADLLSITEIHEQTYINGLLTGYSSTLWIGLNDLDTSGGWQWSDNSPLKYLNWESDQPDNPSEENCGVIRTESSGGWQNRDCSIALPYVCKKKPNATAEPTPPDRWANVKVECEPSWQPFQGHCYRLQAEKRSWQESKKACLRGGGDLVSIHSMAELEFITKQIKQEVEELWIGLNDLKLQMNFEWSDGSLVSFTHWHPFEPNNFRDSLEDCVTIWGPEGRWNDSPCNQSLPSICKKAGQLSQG
Briefly: ELISA, immobilized human Endo180-mouse Fc DI-IV.

The target in series [3] is T2, human Endo180-moFc domains I-III (aa 31-370) (human, UniProt Q9UBG0 31-370).
T2 construct: also called huEndo180 (DI-III); huEndo180-moFc DI-III; not shown: murine Fc domain
T2 sequence: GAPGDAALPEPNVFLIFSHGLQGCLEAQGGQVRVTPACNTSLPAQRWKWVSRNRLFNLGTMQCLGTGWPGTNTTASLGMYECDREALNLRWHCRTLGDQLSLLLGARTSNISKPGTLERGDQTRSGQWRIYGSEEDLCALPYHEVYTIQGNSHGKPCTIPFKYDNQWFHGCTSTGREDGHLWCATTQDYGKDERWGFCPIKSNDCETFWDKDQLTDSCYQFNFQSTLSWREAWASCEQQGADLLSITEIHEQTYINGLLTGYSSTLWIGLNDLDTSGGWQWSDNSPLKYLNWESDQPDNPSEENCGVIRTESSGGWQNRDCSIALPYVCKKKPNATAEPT
The series can be described thus: ELISA, immobilized human Endo180-mouse Fc DI-III. (An ELISA detects its analyte on a solid surface through an enzyme-linked reagent.)

The target of series [4] is T3, Endo180 on cells (Endo180-expressing HT1080-WT cells; Endo180-transfected HEK293-Endo180 cells) (UniProt Q9UBG0 31-1479).
T3 construct: whole, on cells; One molecule is used for the endogenous protein on HT1080-WT and the transfected protein on HEK293-Endo180; also called uPARAP
T3 sequence (looked up): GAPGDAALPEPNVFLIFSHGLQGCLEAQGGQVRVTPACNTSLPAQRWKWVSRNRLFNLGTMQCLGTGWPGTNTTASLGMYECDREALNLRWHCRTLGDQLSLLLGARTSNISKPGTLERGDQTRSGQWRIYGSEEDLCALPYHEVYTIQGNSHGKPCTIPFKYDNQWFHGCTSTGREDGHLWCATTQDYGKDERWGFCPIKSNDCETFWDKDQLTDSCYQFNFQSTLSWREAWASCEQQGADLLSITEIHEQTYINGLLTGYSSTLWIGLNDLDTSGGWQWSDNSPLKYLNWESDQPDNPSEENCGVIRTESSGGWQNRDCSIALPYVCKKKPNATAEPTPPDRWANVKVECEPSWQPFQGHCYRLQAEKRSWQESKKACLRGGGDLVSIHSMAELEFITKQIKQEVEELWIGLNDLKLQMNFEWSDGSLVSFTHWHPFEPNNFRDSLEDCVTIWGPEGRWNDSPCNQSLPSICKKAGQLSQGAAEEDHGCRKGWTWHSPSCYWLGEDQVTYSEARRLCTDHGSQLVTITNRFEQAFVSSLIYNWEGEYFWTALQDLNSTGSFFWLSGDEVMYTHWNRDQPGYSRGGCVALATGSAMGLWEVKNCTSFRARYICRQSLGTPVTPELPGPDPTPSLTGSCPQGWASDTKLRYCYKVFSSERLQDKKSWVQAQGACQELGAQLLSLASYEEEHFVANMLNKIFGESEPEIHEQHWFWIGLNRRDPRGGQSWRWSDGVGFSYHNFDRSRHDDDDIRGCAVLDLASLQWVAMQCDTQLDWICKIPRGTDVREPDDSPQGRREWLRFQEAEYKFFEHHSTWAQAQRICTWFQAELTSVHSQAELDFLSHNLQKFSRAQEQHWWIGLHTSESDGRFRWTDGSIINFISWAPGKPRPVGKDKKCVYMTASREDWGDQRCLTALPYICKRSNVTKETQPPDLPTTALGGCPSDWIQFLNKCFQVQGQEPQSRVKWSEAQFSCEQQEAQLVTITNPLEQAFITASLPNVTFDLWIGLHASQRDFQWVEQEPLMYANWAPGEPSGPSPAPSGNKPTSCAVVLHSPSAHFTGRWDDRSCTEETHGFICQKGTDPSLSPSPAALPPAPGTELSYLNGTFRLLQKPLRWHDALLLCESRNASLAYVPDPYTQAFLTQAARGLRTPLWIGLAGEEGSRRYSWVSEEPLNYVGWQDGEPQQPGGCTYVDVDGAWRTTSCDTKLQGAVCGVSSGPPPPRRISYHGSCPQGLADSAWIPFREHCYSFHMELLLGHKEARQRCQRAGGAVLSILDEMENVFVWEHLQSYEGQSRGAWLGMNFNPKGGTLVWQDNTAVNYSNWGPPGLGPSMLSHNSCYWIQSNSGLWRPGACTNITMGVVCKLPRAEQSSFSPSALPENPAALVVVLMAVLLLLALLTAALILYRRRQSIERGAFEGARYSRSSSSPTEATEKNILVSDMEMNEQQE
Briefly: flow cytometry on HT1080-WT cells. (In general: A flow cytometer gives signals particle by particle.)

Series [5] addresses T3, Endo180 on cells (Endo180-expressing …). Briefly: flow cytometry on HEK293-Endo180 cells.

The values below come from patent EP4578463A1, “ENDO-180 TARGETED ANTIBODY-DRUG CONJUGATES” (Oncomatryx Biopharma, S.L., priority 2023, dated 2025).

One may read the TGI as the reduction of tumour growth relative to the control group. Broadly, the EC50 is the concentration giving half of the maximal effect. High values mean a less potent agent, low ones a more potent agent.

`CC(=O)O[C@@]12CO[C@@H]1C[C@H](O)[C@@]1(C)C(=O)[C@H](O)C3=C(C)[C@@H](OC(=O)[C@H](O)[C@@H](NC(=O)OC(C)(C)C)c4ccccc4)C[C@@](O)([C@@H](OC(=O)c4ccccc4)[C@H]21)C3(C)C` [Docetaxel] returned a TGI in series [1] of 73%. The “tolerability based on body weight data and clinical observations” value (mouse, in vivo) is on record as “well tolerated, except in one mouse”. This molecule also yielded a relative weight loss (one mouse, at the group end day) of 16.0%.

B1: IgG G7V Δab (antibody, V domains shown)
VH: EVQLVESGGGLVKPGGSLRLSCAASGFTFSSYSMNWVRQAPGKGLEWVANIKPDGSERHSVDSVKGRFTISRDNSKNSLYLQMNSLRAEDTAVYYCARPGAGRLDYWGQGTLVTVSS
VL: SSELTQDPAVSVALGQTVRITCQGDSLRSYYASWYQQKPGQAPVLVVYGKNNRPSGIPDRFSGSSSGNTASLTITGAQAEDEADYYCNSRDSSGNPWAFGGGTKVTVL
notes: also called IgG G7V with a silent Fc
Regarding B1, the EC50 in series [2] came out at 0.53 nM; in series [3], 0.45 nM; in series [4], 3.7 nM.

B2: OMTX707 antibody-drug conjugate (antibody, human IgG1, lambda, V domains shown)
VH: B1 VH
VL: SSELTQDPAVSVALGQTVRITCQGDSLRSYYASWYQQKPGQAPVLVVYGKNNRPSGIPDRFSGSSSGNTASLTITGAQAEDEADYYCNSRDSSGNPWAFGGGTKVTVLG
modifications: drug-linker TAM558 on cysteine residues, non-site directed (sites not given); drug-linker TAM558 (cytolysin-linker maleimide caproyl vcPABA) on cysteine residues, non-site directed, DAR 3.79
notes: antibody-drug conjugate; also called OMTX707 ADC
Turning to B2, the half-maximal effective concentration (EC50) in series [5] was 1.3 nM. That is a single-digit nanomolar value.

B3: OMTX807 ADC (antibody-drug conjugate) (antibody, human IgG1, lambda, V domains shown)
VH: B1 VH
VL: B2 VL
modifications: drug-linker GGFG-DXd on cysteine residues, non-specific site (sites not given); drug-linker GGFG-DXd on cysteine residues, non-specific site, DAR 8.05
notes: antibody-drug conjugate
As to B3, a half-maximal response in series [5] (EC50) required 0.7 nM.
